Experimental data from patent publication US7820179B2, “Pegylated PTH as PTH receptor modulators and uses thereof” (Eli Lilly and Company, priority 2006, dated 2010).
No end group written: not given here.

Tests used:
Assay type in all cases: in vivo, rat
[1] = system: young adult osteopenic ovariectomized rats; assay: Young adult osteopenic ovariectomized rats: femur BMD (QCT) and serum calcium; settings: young adult Ovx rats
Method: Female Sprague-Dawley rats about 3 months of age are ovariectomized, except for sham controls, and maintained on a 12 hour light/dark cycle at 22° C. with ad lib access to food (TD 89222 with 0.5% Ca and 0.4% P, Teklad, Madison, Wis.) and water. Ovariectomized (Ovx) rats are allowed to lose bone for 25 days, and then weighed and randomized into treatment groups. Treatment is by subcutaneous injection of a compound of the invention at various doses (as indicated in Table 2 below) for 1 month in a vehicle of 20 mM NaH2PO4 in 0.9% NaCl, 3 mg/ml mannitol, pH 5. The rats are injected with the compounds every third or fourth day to approximate once weekly administration to a human. Sham and Ovx controls are treated with the vehicle only (“sham vehicle control” and “ovx vehicle control”). Sera are collected by cardiac puncture approximately 24 hours after final injection under isoflurane anesthesia at necropsy (approximately 24 hours after the final injection), and analyzed using a clinical chemistry analyzer (Hitachi 917, Tokyo, Japan).
At necropsy, left femora are removed, cleaned of soft-tissue and stored in 50% ethanol/saline at 4° C. At room temperature, femora in 50% EtOH/saline are wrapped in Parafilm and centered with respect to the gantry for quantitative computed tomography (QCT) (Research M, Stratec). […]

[2] = system: aged osteopenic ovariectomized rats; assay: Aged osteopenic ovariectomized rats: vertebral BMD/BMC, bone biomechanical strength, serum calcium
Method: Hypercalcemia is defined herein as the upper 97.5 percentile serum calcium value of normal ovariectomized vehicle controls for the animal type used, using clinical chemistry data and sera collected from cardiac puncture (International Federation of Clinical Chemistry, H E Solberg in Tietz Fundamentals of Clinical Chemistry, 5th edition, Burtis C A and Ashwood E R, editors, 2001, pp 251-261). The value reflecting the 97.5 percentile is 11.2 mg of calcium per dL of serum from ovx vehicle control. The “Hypercalcemic Dose”, i.e., the dose at which hypercalcemia is observed 24 hours after injection of the test compound using clinical chemistry data and sera collected from cardiac puncture, is determined by interpolation, using regression analysis to fit the calcemic dose response observed 24 hours after administering the compound to ovariectomized rats.
Female Sprague-Dawley rats about 6 months of age are ovariectomized, except for sham controls, and maintained on a 12 hour light/dark cycle at 22° C. with ad lib access to food (TD 89222 with 0.5% Ca and 0.4% P, Teklad, Madison, Wis.) and water. Ovariectomized (Ovx) rats are allowed to lose bone for one month before treatment with compounds of the invention for two additional months. The compound to be tested is subcutaneously administered at various doses (as indicated in Table 3 below) in a vehicle of 20 mM NaH2PO4 in 0.9% NaCl, 3 mg/ml mannitol, pH 5, every 6 or 7 days for two months. Sham and Ovx controls are treated with the vehicle only (“sham vehicle control” and “ovx vehicle control”). Sera are then collected by cardiac puncture under isoflurane anesthesia at necropsy, and analyzed using a clinical chemistry analyzer. Lumbar vertebra L4-6 and left femora are removed, cleaned of soft-tissue and stored in 50% ethanol/saline at 4° C. At room temperature, L-5 in 50% EtOH/saline are wrapped in Parafilm and centered with respect to the QCT gantry (Research M, Stratec). A coronal scout scan of the L-5 vertebra is generated first in 2D before 3D analysis. QCT parameters are measured including BMD (mg/cc), BMC (mg), and cross-sectional area (mm^2). Lumbar vertebra L-5, femoral midshaft, and proximal femur are then prepared for biomechanical testing. Strength (N) is evaluated by loading the specimens to failure as described previously (Sato, et al., Endocrinology, […]:4330-4337, 1997).
Pegylated compounds of the invention are evaluated in this assay relative to a positive control of 3-5 μg/kg/d PTH(1-38). PTH(1-34) and PTH(1-38) are found to be indistinguishable in terms of skeletal efficacy or calcemic effects in osteopenic ovariectomized rats. It has been previously shown that rats administered 5 μg/kg/d (1 nmol/kg/d) PTH(1-34) have a systemic exposure that is about 3 times that of PTH(1-34) (i.e., FORTEO™) in humans (Tashjian and Chabner, J. Bone Miner Res, 17:1151-1161, 2002; Tashjian and Gagel, J. Bone Miner Res, 21:354-365, 2006). […] This is confirmed for PTH(1-38) in this model with a dosing of 3-5 μg/kg/d.

[3] = system: aged osteopenic ovariectomized rats; assay: Direct comparison of 2 kD and 5 kD pegylated SEQ ID NO: 1 in aged osteopenic ovariectomized rats; settings: for Serum Calcium: 24 hours after dosing
Description: A compound of the invention with SEQ ID NO: 1, wherein the mPEG to which it is conjugated is a 2 kD mPEG, is directly compared to a compound of the invention with SEQ ID NO: 1, wherein the mPEG to which it is conjugated is a 5 kD mPEG. Aged osteopenic ovariectomized rats are permitted to lose bone for one month before dosing (nmol/kg as in Table 5 and 6) every 6 days with vehicle alone, or the 2 kD pegylated SEQ ID NO: 1 compound or the 5 kD pegylated SEQ ID NO: 1 compound for 8 weeks.

[4] = 11 nmol/kg every 6 days for 8 weeks
[5] = 32 nmol/kg every 6 days for 8 weeks
[6] = 108 nmol/kg every 6 days for 8 weeks

SEQ ID NO: 1 with 5 kD mPEG (SVSEIQLMHNLGRHLASMERVEWLRKLLQDVHNF-NH2; not fully specified (residue 26))
Hypercalcemic Dose/BMD Dose [1]: >8.8
Hypercalcemic Dose/Femoral Neck Strength Dose ([2]; derived from Table 3): >9.7
Hypercalcemic Dose/Midshaft Strength Dose ([2]; derived from Table 3): >1.0
Hypercalcemic Dose/Vertebral BMC Dose ([2]; derived from Table 3): >3.34
Hypercalcemic Dose/Vertebral BMD Dose ([2]; derived from Table 3): >1.0
Hypercalcemic Dose/Vertebral Strength Dose ([2]; derived from Table 3): >1.0
Vertebral BMC Dose ([2]; dose at which Sham level of vertebral BMC is achieved): 32 nmol/kg
Vertebral BMD Dose ([2]; dose at which Sham level of vertebral BMD is achieved, s.c. every 6 or 7 days for two months): >108 nmol/kg
Fem Neck Strength Dose ([2]; dose at which femoral neck strength comparable to sham vehicle control and positive control is achieved): 11 nmol/kg
Midshaft Strength Dose ([2]; dose at which midshaft strength comparable to sham vehicle control and positive control is achieved): 108 nmol/kg
Vertebral Strength Dose ([2]; dose at which vertebral strength comparable to sham and positive control is achieved): 108 nmol/kg
Hypercalcemia Dose ([2]; sera 24 hours after administration, > means highest dose tested, not reached): >107 nmol/kg
Vertebral BMD [3, 4]: 567 mg/cc
Serum Calcium [3, 4]: 10.86 mg/dL
Vertebral BMD [3, 5]: 589 mg/cc
Serum Calcium [3, 5]: 10.79 mg/dL
Vertebral BMD [3, 6]: 612 mg/cc
Serum Calcium [3, 6]: 11.03 mg/dL
